For data set [1], the system named is HeLa Kyoto. As to the kind of experiment: solubility in G1/S (NP-40 vs SDS abundance) (log2 ratio); higher = more soluble. Conditions: cell cycle stage: G1/S.
In data set [2] the test system is HeLa Kyoto. Description: melting temperature (median over replicates), in situ; higher = more thermally stable.
The test system of data set [3] is HeLa Kyoto. As to the kind of experiment: solubility change mitosis vs G1/S (difference of NP-40 vs SDS log2 ratios) (log2 ratio difference); higher = more soluble in mitosis.
Data set [4] relates to HeLa Kyoto. Description: thermal stability score vs G1/S (z-score of summed log2 fold changes over temperatures); higher = more thermally stable than in G1/S.
Where [5] appears, read: cell cycle stage: early G1 (4.5 h after nocodazole release).
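For melting temperature (median over replicates), in situ in this document: HeLa Kyoto cells synchronized by double thymidine or nocodazole block, proteins quantified by TMT10plex mass spectrometry, three independent biological replicates.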
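For solubility change mitosis vs G1/S (difference of NP-40 vs SDS log2 ratios) in this document: synchronized HeLa Kyoto cells (double thymidine block for G1/S, nocodazole release for mitosis), protein amounts in NP-40 versus SDS lysates quantified by mass spectrometry, three biological replicates.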
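For solubility in G1/S (NP-40 vs SDS abundance) in this document: HeLa Kyoto cells arrested at G1/S by double thymidine block, proteins quantified by TMT10plex mass spectrometry in mild NP-40 versus SDS extracts, three biological replicates.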
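For thermal stability score vs G1/S (z-score of summed log2 fold changes over temperatures) in this document: synchronized HeLa Kyoto cells, proteins quantified by TMT10plex mass spectrometry, three biological replicates, mitosis taken 0.5 h after nocodazole release, G1/S directly after double thymidine block.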

“MAWALKLPLADEVIESGLVQDFDASLSGIGQELGAGAYSMSDVLALPIFKQEESSLPPDNENKILPFQYVLCAATSPAVKLHDETLTYLNQGQSYEIRMLDNRKLGELPEINGKLVKSIFRVVFHDRRLQYTEHQQLEGWRWNRPGDRILDIDIPMSVGIIDPRANPTQLNTVEFLWDPAKRTSVFIQVHCISTEFTMRKHGGEKGVPFRVQIDTFKENENGEYTEHLHSASCQIKVFKPKGADRKQKTDREKMEKRTPHEKEKYQPSYETTILTECSPWPEITYVNNSPSPGFNSSHSSFSLGEGNGSPNHQPEPPPPVTDNLLPTTTPQEAQQWLHRNRFSTFTRLFTNFSGADLLKLTRDDVIQICGPADGIRLFNALKGRMVRPRLTIYVCQESLQLREQQQQQQQQQQKHEDGDSNGTFFVYHAIYLEELTAVELTEKIAQLFSISPCQISQIYKQGPTGIHVLISDEMIQNFQEEACFILDTMKAETNDSYHIILK [TFCP2]”: in the data set with HeLa Kyoto [1], the “solubility in G1/S (log2)” value is -0.0776. Moreover, the melting temperature with HeLa Kyoto [2] (cell cycle stage: G1/S) stood at 48.2 °C; in the data set on HeLa Kyoto [2] (cell cycle stage: mitosis), 48.6 °C. For the same sequence, the “solubility change mitosis (log2)” value with HeLa Kyoto [3] was -0.0306. For the same sequence, the figures for the thermal stability score in the data set with HeLa Kyoto [4] (setting [5]) and with HeLa Kyoto [4] (cell cycle stage: mitosis) were 0.94 and 2.72, respectively.
“MAAIPPDSWQPPNVYLETSMGIIVLELYWKHAPKTCKNFAELARRGYYNGTKFHRIIKDFMIQGGDPTGTGRGGASIYGKQFEDELHPDLKFTGAGILAMANAGPDTNGSQFFVTLAPTQWLDGKHTIFGRVCQGIGMVNRVGMVETNSQDRPVDDVKIIKAYPSG [PPIL1]”: the “solubility in G1/S (log2)” value in the data set on HeLa Kyoto [1] turned out to be 0.351. Also, the melting temperature in the data set with HeLa Kyoto [2] (cell cycle stage: G1/S) is 49.1 °C; with HeLa Kyoto [2] (cell cycle stage: mitosis), 50.1 °C. Also, the “solubility change mitosis (log2)” value in the data set with HeLa Kyoto [3] was found to be 0.414. Further, the thermal stability score with HeLa Kyoto [4] (setting [5]) was -0.554; with HeLa Kyoto [4] (cell cycle stage: mitosis), -0.941.
As for “MDEAGSSASGGGFRPGVDSLDEPPNSRIFLVISKYTPESVLRERFSPFGDIQDIWVVRDKHTKESKGIAFVKFARSSQACRAMEEMHGQCLGPNDTKPIKVFIAQSRSSGSHRDVEDEELTRIFVMIPKSYTEEDLREKFKVYGDIEYCSIIKNKVTGESKGLGYVRYLKPSQAAQAIENCDRSFRAILAEPKNKASESSEQDYYSNMRQEALGHEPRVNMFPFVGEQQSEFSSFDKNDSRGQEAISKRLSVVSRVPFTEEQLFSIFDIVPGLEYCEVQRDPYSNYGHGVVQYFNVASAIYAKYKLHGFQYPPGNRIGVSFIDDGSNATDLLRKMATQMVAAQLASMVWNNPSQQQFMQFGGSSGSQLPQIQTDVVLPSCKKKAPAETPVKERLFIVFNPHPLPLDVLEDIFCRFGNLIEVYLVSGKNVGYAKYADRISANDAIATLHGKILNGVRLKVMLADSPREESNKRQRTY [RBM45]”, the “solubility in G1/S (log2)” value in the data set with HeLa Kyoto [1] came to 0.000113. Besides, the values for the melting temperature in the data set with HeLa Kyoto [2] (cell cycle stage: G1/S) and in the data set on HeLa Kyoto [2] (cell cycle stage: mitosis) were 48.4 °C and 50 °C, respectively. In addition, the “solubility change mitosis (log2)” value in the data set on HeLa Kyoto [3] stood at 0.448. Moreover, the figures for the thermal stability score in the data set on HeLa Kyoto [4] (setting [5]) and in the data set on HeLa Kyoto [4] (cell cycle stage: mitosis) were 0.337 and 0.251, respectively.
For the sequence “MADSKEGVLPLTAASTAPISFGFTRTSARRRLADSGDGAGPSPEEKDFLKTVEGRELQSVKPQEAPKELVIPLIQNGHRRQPPARPPGPSTDTGALADGVVSQAVKELIAESKKSLEERENAGVDPTLAIPMIQKGCTPSGEGADSEPRAETVPEEANYEAVPVEAYGLAMLRGMGWKPGEGIGRTFNQVVKPRVNSLRPKGLGLGANLTEAQALTPTGPSRMPRPDEEQEKDKEDQPQGLVPGGAVVVLSGPHRGLYGKVEGLDPDNVRAMVRLAVGSRVVTVSEYYLRPVSQQEFDKNTLDLRQQNGTASSRKTLWNQELYIQQDNSERKRKHLPDRQDGPAAKSEKAAPRSQHWLHRDLRVRFVDNMYKGGQYYNTKMIIEDVLSPDTCVCRTDEGRVLEGLREDMLETLVPKAEGDRVMVVLGPQTGRVGHLLSRDRARSRALVQLPRENQVVELHYDAICQYMGPSDTDDD [GPKOW]”, the “solubility in G1/S (log2)” value with HeLa Kyoto [1] is 0.393. Moreover, the melting temperature is 48.8 °C in the data set on HeLa Kyoto [2] (cell cycle stage: G1/S) and 49.8 °C in the data set with HeLa Kyoto [2] (cell cycle stage: mitosis). Besides, in the data set with HeLa Kyoto [3], the “solubility change mitosis (log2)” value was -0.0336. For the same sequence, the thermal stability score with HeLa Kyoto [4] (setting [5]) amounted to 0.906; with HeLa Kyoto [4] (cell cycle stage: mitosis) it was 2.23.
“MVDREQLVQKARLAEQAERYDDMAAAMKNVTELNEPLSNEERNLLSVAYKNVVGARRSSWRVISSIEQKTSADGNEKKIEMVRAYREKIEKELEAVCQDVLSLLDNYLIKNCSETQYESKVFYLKMKGDYYRYLAEVATGEKRATVVESSEKAYSEAHEISKEHMQPTHPIRLGLALNYSVFYYEIQNAPEQACHLAKTAFDDAIAELDTLNEDSYKDSTLIMQLLRDNLTLWTSDQQDDDGGEGNN [YWHAG]”: the “solubility in G1/S (log2)” value in the data set on HeLa Kyoto [1] was 0.35. The melting temperature was 55.1 °C in the data set on HeLa Kyoto [2] (cell cycle stage: G1/S) and 54.8 °C in the data set on HeLa Kyoto [2] (cell cycle stage: mitosis). Also, in the data set with HeLa Kyoto [3], the “solubility change mitosis (log2)” value was found to be 0.206. Besides, the thermal stability score is -2.23 in the data set on HeLa Kyoto [4] (setting [5]) and -4.24 with HeLa Kyoto [4] (cell cycle stage: mitosis).
